From US20150322137A1 (EVEC, published 2015)

Legend:
[1] = biological target: T1, F protein of human metapneumovirus strain JPS05-21 (type B2), on infectious virus (human metapneumovirus, strain JPS05-21 …); experiment: cell-based or functional assay
[2] = biological target: T2, F protein of human metapneumovirus strain JPS03-178 (type A2), on infectious virus (human metapneumovirus, strain JPS03-178 …); experiment: cell-based or functional assay
[3] = biological target: T3, F protein of human metapneumovirus strain JPS03-180 (type A1), on infectious virus (human metapneumovirus, strain JPS03-180 …); experiment: cell-based or functional assay
[4] = biological target: T1, F protein of human metapneumovirus …; experiment: cell-based or functional assay; remark: listed apart in the source
[5] = biological target: T2, F protein of human metapneumovirus …; experiment: cell-based or functional assay; remark: listed apart in the source
[6] = biological target: T3, F protein of human metapneumovirus …; experiment: cell-based or functional assay; remark: listed apart in the source
[7] = biological target: T4, F protein of human metapneumovirus strain JPS02-76 (type B1), on infectious virus (human metapneumovirus, strain JPS02-76 …, UniProt Q6WB98 19-539); experiment: cell-based or functional assay
[8] = biological target: T4, F protein of human metapneumovirus …; experiment: cell-based or functional assay; remark: listed apart in the source
[9] = biological target: T1, F protein of human metapneumovirus …; experiment: cell-based or functional assay; remark: listed apart in the source
[10] = biological target: T2, F protein of human metapneumovirus …; experiment: cell-based or functional assay; remark: listed apart in the source
[11] = biological target: T3, F protein of human metapneumovirus …; experiment: cell-based or functional assay; remark: listed apart in the source
[12] = biological target: T4, F protein of human metapneumovirus …; experiment: cell-based or functional assay; remark: listed apart in the source
[13] = biological target: T1, F protein of human metapneumovirus …; experiment: cell-based or functional assay; remark: listed apart in the source
[14] = biological target: T3, F protein of human metapneumovirus …; experiment: cell-based or functional assay; remark: listed apart in the source
[15] = biological target: T4, F protein of human metapneumovirus …; experiment: cell-based or functional assay; remark: listed apart in the source
[16] = biological target: FP-TM(-)-His, His-Tag-added hMPV (JPS02-76) FP lacking the transmembrane region (amino acid residues 491 to … (human metapneumovirus, strain JPS02-76 …, UniProt Q6WB98 19-490)); experiment: SPR, Biacore T-200; antibody captured by anti-human IgG, FP-TM(-)-His as analyte

| Binder | IC50, neutralizing activity (hMPV infection of LLC-MK2 cells; GraphPad Prism 6) [1] [µg/mL] | IC50, neutralizing activity (hMPV infection of LLC-MK2 cells; GraphPad Prism 6) [2] [µg/mL] | IC50, neutralizing activity (hMPV infection of LLC-MK2 cells; GraphPad Prism 6) [3] [µg/mL] | IC90, neutralizing activity (hMPV infection of LLC-MK2 cells; GraphPad Prism 6) [4] [µg/mL] | IC90, neutralizing activity (hMPV infection of LLC-MK2 cells; GraphPad Prism 6) [5] [µg/mL] | IC90, neutralizing activity (hMPV infection of LLC-MK2 cells; GraphPad Prism 6) [6] [µg/mL] | IC90, neutralizing activity (hMPV infection of LLC-MK2 cells; GraphPad Prism 6) [7] [µg/mL] | IC50, cell-to-cell spread inhibitory activity (LLC-MK2 cells stably expressing TMPRSS2) [8] [µg/mL] | IC90, cell-to-cell spread inhibitory activity (LLC-MK2 cells stably expressing TMPRSS2) [8] [µg/mL] | IC60, neutralizing activity (hMPV infection of LLC-MK2 cells; GraphPad Prism 6) [9] [µg/mL] | IC60, neutralizing activity (hMPV infection of LLC-MK2 cells; GraphPad Prism 6) [10] [µg/mL] | IC60, neutralizing activity (hMPV infection of LLC-MK2 cells; GraphPad Prism 6) [11] [µg/mL] | IC60, neutralizing activity (hMPV infection of LLC-MK2 cells; GraphPad Prism 6) [12] [µg/mL] | IC50, neutralizing activity (hMPV infection of LLC-MK2 cells) [13] [µg/mL] | IC50, neutralizing activity (hMPV infection of LLC-MK2 cells) [14] [µg/mL] | IC50, neutralizing activity (hMPV infection of LLC-MK2 cells) [15] [µg/mL] | Kd [16] [nM] | koff [16] [s⁻¹] | kon [16] [M⁻¹ s⁻¹] |
| --- | --- | --- | --- | --- | --- | --- | --- | --- | --- | --- | --- | --- | --- | --- | --- | --- | --- | --- | --- |
| EV046143 (antibody, human IgG1, kappa, V domains shown) VH: QVQLVQSGAEVQKPGSSVKVSCKTSGDTFNNYALSWVRQAPGQGPEWMGRIIPLVEMANYAQKFQGRVTITADKSTTTIYMELSSLRSEDTAMYYCARDGYQGGFPYFFDSWGQGTLVTVSS VL: EVVLTQSPGTLSLSPGERATLSCRASQSVSNYLAWYQQKPGQAPRLLISAASSRATGIPDRFGGSGSGADFTLTISRLEPEDFAVYYCQQYGFSPGTFGQGTKVEIRR | 0.272 | 0.0198 | 0.157 | 1.29 | 0.0967 | 0.402 | 0.735 | 0.0572 | 0.886 | 0.363 | 0.0266 | 0.186 | 0.627 | 0.27 | 0.13 | 0.46 | – | – | – |
| EV046116 (antibody, human IgG1, kappa, V domains shown) VH: QVQLQESGPGLVKPSETLSLTCTVSGGSISRDYWSFIRQPAGKGLEWIGRIYHNGDTNYNPSLKSRVTMSQDTSKNQFFLRLRHVTAADTAVYYCAREGSAGTFGQADWGQGTLVIVYS VL: EIVMTQSPATLSVSPGERATLSCRASQSISNNLAWYQQKPGQAPRLLIYGASTRATGIPARFSGGGSGTEFTLTISSLQSEDFAVYYCQQYENWLLYTFGQGTKLEIKR | 0.279 | 0.19 | 0.351 | 0.828 | 0.8 | 1.03 | 3 | 0.054 | 0.132 | 0.341 | 0.247 | 0.428 | 0.497 | 0.25 | 0.31 | 0.25 | 1.62 | 0.000408 | 252000 |
| EV046142 (antibody, human IgG1, lambda, V domains shown) VH: QVQLVQSGAEVKKPGSSVRVSCKASGGTFSTYGINWVRQARGQGLEWMGTVIPTFEKTYYAQGFQGRVTIAADGSKNTVYMELRRLTSEDSAIYFCTRFFTPYCSGGSCYLDLWGPGTLVTVSS VL: QSVLTQPPSVSGAPGQSVTISCAGSSSNIGAGYDVHWYQHLPGTAPRLLIYSNTNRPSGVPDRFSGSKSGASASLAITGLQAEDEADYYCQSYDSGVVFGGGTKLTVLR | 0.273 | 0.0614 | 0.212 | 1.35 | 0.738 | 0.443 | 1.57 | 0.0123 | 0.0664 | 0.366 | 0.0971 | 0.243 | 0.641 | 0.22 | 0.22 | 0.42 | – | – | – |
| EV046150 (antibody, human IgG1, kappa, V domains shown) VH: RVQLVQSGAEVKKPGSSVRVSCKASGGTFSNYSISWVRQVPGQGLEWMGRIIPILPLSSYPQQFQGRVAITADKSSTTAYMELSSLRIEDTAIYYCARDALRPEGGYYYYYFDVWGTGTTVTVSS VL: EIELTQSPGTLSLSPGERATLSCRANQIIGDTSLAWYQQKPGQAPRLLIFGASSRATGIPDRFSGSGFGSDFTLTITSLEPEDFAVYYCQQYGSSPTFGQGTKVEIKR | 0.202 | 0.0298 | 0.0618 | 0.404 | 0.101 | 0.292 | 0.663 | 0.0166 | 0.065 | 0.229 | 0.0373 | 0.0823 | 0.36 | 0.18 | 0.049 | 0.3 | – | – | – |
| EV046147 (antibody, human IgG1, lambda, V domains shown) VH: QVQLVQSGAEVKKPGASVKVSCKASGYTFSVYGISWVRQAPGHGLEWMGWISAYNGDRGYAQKVQGRITMTTDTSASTAYMELRSLTSDDTAVYYCATTSSGVPGIYWGQGSLVTVSS VL: SYALVQPPSVSVSPGQTARITCFGPALPKKYAYWYQHKSGQAPMLVIYEDTKRPSGIPQRFSGSTSGATATLTIRGAQVEDEADYYCYSTDSSGHERVFGGGTKLTVLG | 0.253 | 1.98 | 0.326 | 0.612 | 2.41 | 1.07 | 1.18 | 0.114 | 0.506 | 0.298 | 2.06 | 0.406 | 0.514 | 0.27 | 0.31 | 0.39 | – | – | – |
